This data set deals with Escherichia coli TOP10. The data set is described as follows: shrunken log2 fold change of peptide-encoding DNA abundance (4.5 h post-induction vs induction); higher = less antimicrobial activity (less host growth inhibition). The settings on record: time post-induction: 4.5 h; library: site-saturation at positions 5, 18, 19, 20.
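Also: peptides expressed intracellularly from a pBAD plasmid library in pooled LB shake-flask culture, induced with 0.3% L-arabinose, DNA abundance read by NGS, three biological replicates, DESeq2 with apeglm shrinkage.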

RRIRRRPPRLPRPRPRPMVSPRP: the “shrunken log2 fold change” value stood at 0.0678. Under RRIRWRPPRLPRPRPRPQIRPRP stands -0.0767. Take RRIRYRPPRLPRPRPRPNEYPRP: the “shrunken log2 fold change” value is -0.519. Turning to RRIRWRPPRLPRPRPRPASWPRP, the “shrunken log2 fold change” value worked out at 0.576.

Take RRIRYRPPRLPRPRPRPRPGPRP: the “shrunken log2 fold change” value stood at 0.219. Turning to RRIRCRPPRLPRPRPRPKVDPRP, the “shrunken log2 fold change” value came to 0.0328.

Consider RRIRIRPPRLPRPRPRPMFSPRP, for which the “shrunken log2 fold change” value was -0.433. For the sequence RRIRSRPPRLPRPRPRPMMHPRP, the “shrunken log2 fold change” value was -0.121. In the case of RRIRLRPPRLPRPRPRPMKAPRP it was -0.0274; in that of RRIRGRPPRLPRPRPRPVRAPRP, 1.01; in that of RRIRYRPPRLPRPRPRPCASPRP, -0.12.

For RRIRYRPPRLPRPRPRPRDAPRP, the “shrunken log2 fold change” value was -0.103.

Regarding RRIRRRPPRLPRPRPRPALDPRP, the “shrunken log2 fold change” value is 0.586. In the case of RRIRNRPPRLPRPRPRPDFCPRP it was 0.0953; in that of RRIRFRPPRLPRPRPRPHSIPRP, -0.248; in that of RRIRSRPPRLPRPRPRPYAAPRP, -0.0585. In the case of RRIRHRPPRLPRPRPRPCCCPRP, the “shrunken log2 fold change” value was -0.421.

With RRIRHRPPRLPRPRPRPLTAPRP, the “shrunken log2 fold change” value is -0.0931. Under RRIRVRPPRLPRPRPRPDQHPRP stands -0.0679; under RRIRQRPPRLPRPRPRPLTQPRP, 0.0547; under RRIRRRPPRLPRPRPRPYDAPRP, -0.635. Turning to RRIRYRPPRLPRPRPRPCKTPRP, the “shrunken log2 fold change” value was -0.154.

With RRIRERPPRLPRPRPRPEANPRP, the “shrunken log2 fold change” value is -0.00156. In the case of RRIRWRPPRLPRPRPRPVMSPRP, the “shrunken log2 fold change” value was -0.172. In the case of RRIRMRPPRLPRPRPRPPHNPRP it was 0.767; in that of RRIRTRPPRLPRPRPRPGGGPRP, 0.759; in that of RRIRQRPPRLPRPRPRPVCWPRP, 0.279.

Turning to RRIRVRPPRLPRPRPRPQWHPRP, the “shrunken log2 fold change” value is -0.311.

RRIRPRPPRLPRPRPRPGYTPRP: the “shrunken log2 fold change” value was -0.0764. Consider RRIRMRPPRLPRPRPRPDKCPRP, for which the “shrunken log2 fold change” value was -0.0194. Under RRIRDRPPRLPRPRPRPPNLPRP stands -0.172. Turning to RRIRERPPRLPRPRPRPDYIPRP, the “shrunken log2 fold change” value is -0.0061.

With RRIRRRPPRLPRPRPRPSVAPRP, the “shrunken log2 fold change” value was determined as 0.478. In the case of RRIRPRPPRLPRPRPRPIWTPRP it was -0.262.

On to RRIRFRPPRLPRPRPRPKHEPRP, for which the “shrunken log2 fold change” value worked out at 0.286. Turning to RRIRSRPPRLPRPRPRPQRNPRP, the “shrunken log2 fold change” value stood at 0.104. Turning to RRIRCRPPRLPRPRPRPRHGPRP, the “shrunken log2 fold change” value was determined as 0.116. With RRIRGRPPRLPRPRPRPVHSPRP, the “shrunken log2 fold change” value is 0.0124.

For the sequence RRIRSRPPRLPRPRPRPKLEPRP, the “shrunken log2 fold change” value was determined as 0.165. Under RRIRLRPPRLPRPRPRPRILPRP stands -0.211. Under RRIRRRPPRLPRPRPRPDPMPRP stands 0.326. In the case of RRIRWRPPRLPRPRPRPDSIPRP it was -0.243; in that of RRIRRRPPRLPRPRPRPDVVPRP, -0.0225; in that of RRIRQRPPRLPRPRPRPHSLPRP, 0.178. For the sequence RRIRMRPPRLPRPRPRPVPQPRP, the “shrunken log2 fold change” value stood at 0.7. In the case of RRIRKRPPRLPRPRPRPNHQPRP, the “shrunken log2 fold change” value was -0.376.

In the case of RRIRVRPPRLPRPRPRPSKTPRP, the “shrunken log2 fold change” value is -0.61. Turning to RRIRSRPPRLPRPRPRPFSHPRP, the “shrunken log2 fold change” value is -0.388.

In the case of RRIRERPPRLPRPRPRPCKIPRP, the “shrunken log2 fold change” value was -0.00331. Regarding RRIRYRPPRLPRPRPRPWWLPRP, the “shrunken log2 fold change” value is -0.0627. With RRIRYRPPRLPRPRPRPGMSPRP, the “shrunken log2 fold change” value was -0.137. Take RRIRQRPPRLPRPRPRPDEEPRP: the “shrunken log2 fold change” value is -0.0445. Under RRIRGRPPRLPRPRPRPTDSPRP stands 0.526; under RRIRERPPRLPRPRPRPCCCPRP, 0.15. On to RRIRSRPPRLPRPRPRPVIHPRP, for which the “shrunken log2 fold change” value is -0.127. Under RRIRWRPPRLPRPRPRPNTVPRP stands 0.178.

For the sequence RRIRRRPPRLPRPRPRPGNFPRP, the “shrunken log2 fold change” value is 0.155. In the case of RRIRNRPPRLPRPRPRPCMAPRP it was -0.346; in that of RRIRTRPPRLPRPRPRPPQYPRP, -0.108. In the case of RRIRTRPPRLPRPRPRPSKWPRP it was -0.0672; in that of RRIRPRPPRLPRPRPRPSDQPRP, 0.029. For RRIRYRPPRLPRPRPRPDFMPRP, the “shrunken log2 fold change” value is -2.08. In the case of RRIRQRPPRLPRPRPRPSFIPRP it was -0.807. Take RRIRARPPRLPRPRPRPHGEPRP: the “shrunken log2 fold change” value was -0.00651. On to RRIRRRPPRLPRPRPRPKFHPRP, for which the “shrunken log2 fold change” value was 0.323.

Turning to RRIRFRPPRLPRPRPRPKTNPRP, the “shrunken log2 fold change” value is 0.0585.

Regarding RRIRIRPPRLPRPRPRPMDVPRP, the “shrunken log2 fold change” value is -0.361.

With RRIRMRPPRLPRPRPRPKNDPRP, the “shrunken log2 fold change” value worked out at 1.05. Regarding RRIRLRPPRLPRPRPRPNWQPRP, the “shrunken log2 fold change” value worked out at 0.351. Under RRIRDRPPRLPRPRPRPDFVPRP stands 1.35; under RRIRERPPRLPRPRPRPLYYPRP, -0.694; under RRIRNRPPRLPRPRPRPIMEPRP, -0.139.

Turning to RRIRRRPPRLPRPRPRPSKRPRP, the “shrunken log2 fold change” value was -0.0523. In the case of RRIRRRPPRLPRPRPRPEWNPRP, the “shrunken log2 fold change” value is 0.471.

Regarding RRIRERPPRLPRPRPRPERNPRP, the “shrunken log2 fold change” value is -0.0672. In the case of RRIRPRPPRLPRPRPRPKTKPRP it was 0.00358; in that of RRIRRRPPRLPRPRPRPPMSPRP, 0.142. In the case of RRIRARPPRLPRPRPRPCACPRP, the “shrunken log2 fold change” value came out at 0.0599.

RRIRWRPPRLPRPRPRPMVKPRP: the “shrunken log2 fold change” value was found to be 0.17. In the case of RRIRRRPPRLPRPRPRPINVPRP it was -0.326; in that of RRIRVRPPRLPRPRPRPGHMPRP, 0.0482; in that of RRIRFRPPRLPRPRPRPINFPRP, -0.601.

Regarding RRIRPRPPRLPRPRPRPCPSPRP, the “shrunken log2 fold change” value was 0.0668.

RRIRCRPPRLPRPRPRPSWPPRP: the “shrunken log2 fold change” value is -0.155. In the case of RRIRKRPPRLPRPRPRPEVTPRP it was -0.0421; in that of RRIRPRPPRLPRPRPRPRDRPRP, 0.18. On to RRIRMRPPRLPRPRPRPYEGPRP, for which the “shrunken log2 fold change” value was -0.13.

On to RRIRTRPPRLPRPRPRPNARPRP, for which the “shrunken log2 fold change” value was -0.0251. Under RRIRLRPPRLPRPRPRPKTCPRP stands 0.118. As for RRIRYRPPRLPRPRPRPWGGPRP, the “shrunken log2 fold change” value stood at 0.011. Under RRIRWRPPRLPRPRPRPTNSPRP stands -0.39.
